Results: patent publication US6107048

What was measured:
monoclonal antibody 12C3 = experiment: competition ELISA: peptide inhibits binding of 12C3 to recombinant Rab25
monoclonal antibody 8H10 = experiment: competition ELISA: peptide inhibits binding of 8H10 to recombinant Rab11

Binder | IC60 (monoclonal antibody 12C3) [µg/mL] | IC50 (monoclonal antibody 8H10) [µg/mL]
KVSKQIQNSPRSNAIALGSAQAGQEPGPGQKR [Rab25 C-terminal variable region synthetic peptide] | 1 | –
QKQMSDRRENDMSPSNNVVPIHVPPTTENKPKVQ [Rab11 C-terminal variable region synthetic peptide] | – | 1
